For assay [1], the target named is T1, GDF11 (Homo sapiens, UniProt O95390).
T1 sequence (O95390 299-407): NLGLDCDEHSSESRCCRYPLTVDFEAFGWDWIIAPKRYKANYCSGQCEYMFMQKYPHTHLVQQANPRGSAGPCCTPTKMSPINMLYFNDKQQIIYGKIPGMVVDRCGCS
The experiment in a line: Biacore assay, receptor captured with anti-hFc antibody. Type of assay: binding. The method, then: (§1) Binding of certain ActRIIB-Fc proteins and GDF traps to ligands was tested in a Biacore assay.
(§2) The ActRIIB-Fc variants or wild-type protein were captured onto the system using an anti-hFc antibody. Ligands were injected and flowed over the captured receptor proteins.
A general note: SPR reads the build-up and loss of mass on a sensor chip optically.

Assay [2] deals with T2, GDF8 (Homo sapiens, UniProt O14793).
T2 sequence (O14793 267-375): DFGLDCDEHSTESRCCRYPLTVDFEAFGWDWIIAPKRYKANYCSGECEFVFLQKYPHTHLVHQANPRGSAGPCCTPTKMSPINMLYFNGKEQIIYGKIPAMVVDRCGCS
The assay is described as above. Type of assay: binding. The method, then:
as §1, §2

The target of assay [3] is T3, activin A (Homo sapiens, UniProt P08476).
T3 sequence (P08476 311-426): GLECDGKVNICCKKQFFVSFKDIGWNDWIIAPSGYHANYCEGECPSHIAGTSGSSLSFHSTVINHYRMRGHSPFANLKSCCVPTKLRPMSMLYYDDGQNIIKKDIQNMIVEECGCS
The description is as above. Type of assay: binding. The method, then: as §1, §2

For a further assay, the system named is activin. In words: ActRIIB-Fc affinity for ligand (description). Type of assay: binding. Conditions: ascertained by Applicants.
Assay [4] deals with T1, GDF11. The experiment in a line: ActRIIB-Fc affinity for ligand (description). Type of assay: binding. To be noted: ascertained by Applicants.
The target in assay [5] is T1, GDF11. The experiment in a line: Biacore-based binding assay, receptor captured with anti-Fc antibody. The method, then: (§3) A Biacore™-based binding assay was used to compare ligand binding selectivity of the ALK4-Fc:ActRIIB-Fc heterodimeric complex described above with that of ActRIIB-Fc and ALK4-Fc homodimer complexes. The ALK4-Fc:ActRIIB-Fc heterodimer, ActRIIB-Fc homodimer, and ALK4-Fc homodimer were independently captured onto the system using an anti-Fc antibody. Ligands were injected and allowed to flow over the captured receptor protein. Results are summarized in the table below, in which ligand off-rates (kd) most indicative of effective ligand traps are denoted in bold font.

In assay [6] the target is T2, GDF8. Described as above. The method, then:
as §3

For assay [7], the target named is T3, activin A. The assay is described as above. The method, then:
as §3

For the next assay, the target named is T4, activin B (Homo sapiens, UniProt P09529).
T4 sequence (P09529 293-407): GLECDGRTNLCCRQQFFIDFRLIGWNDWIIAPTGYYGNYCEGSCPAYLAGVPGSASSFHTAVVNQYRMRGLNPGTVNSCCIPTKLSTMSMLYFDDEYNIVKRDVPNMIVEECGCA
The assay is described as above. The method, then:
as §3

Substitutions are numbered along the chain they refer to. Names and notes keep the numbering of the source.

B1: ActRIIB(L79D 20-134)-hFc: GDF trap: ActRIIB amino acids 20-134 with L79D substitution fused to human Fc (SEQ ID NO: 46) (protein)
chain: GRGEAETRECIYYNANWELERTNQSGLERCEGEQDKRLHCYASWRNSSGTIELVKKGCWDDDFNCYDRQECVATEENPQVYFCCCEGNFCNERFTHLPEAGGPEVTYEPPPTAPTGGGTHTCPPCPAPELLGGPSVFLFPPKPKDTLMISRTPEVTCVVVDVSHEDPEVKFNWYVDGVEVHNAKTKPREEQYNSTYRVVSVLTVLHQDWLNGKEYKCKVSNKALPVPIEKTISKAKGQPREPQVYTLPPSREEMTKNQVSLTCLVKGFYPSDIAVEWESNGQPENNYKTTPPVLDSDGSFFLYSKLTVDKSRWQQGNVFSCSVMHEALHNHYTQKSLSLSPGK
Turning to B1, in the assay with GDF11 [1], the “Koff, GDF11” value amounted to 0.000439 s⁻¹. Also, the “Koff, GDF8” value with GDF8 [2] is 0.00083 s⁻¹. The “KD, Activin A” value with activin A [3] was “Low binding”.

B2: ActRIIB(A24N 20-134)-hFc: ActRIIB(20-134)-hFc variant with A24N mutation (protein)
chain: B1 chain with A5N, D60L
For B2, the “Koff, GDF11” value with GDF11 [1] was 6.35e-05 s⁻¹. Further, in the assay with activin A [3], the “Koff, Activin A” value worked out at 0.000346 s⁻¹ and the “Kon, Activin A” value amounted to 3.34e+06 M⁻¹ s⁻¹.

B3: ActRIIB(L79E 20-134)-hFc: GDF trap form with a glutamate rather than an aspartate at position 79, human Fc fusion (protein)
chain: B1 chain with D60E
As for B3, the “Koff, GDF11” value with GDF11 [1] came to 0.000274 s⁻¹. In the assay with GDF8 [2], the “Koff, GDF8” value was 0.0009 s⁻¹. Moreover, in the assay with activin A [3], the “KD, Activin A” value is recorded as “Low binding”.

B4: ActRIIB(R64K 20-134)-hFc: ActRIIB(20-134)-hFc variant with R64K mutation (protein)
chain: B1 chain with R45K, D60L
As for B4, the “Koff, GDF11” value in the assay with GDF11 [1] turned out to be 2.41e-05 s⁻¹. Also, the “Koff, GDF8” value with GDF8 [2] came out at 4.71e-05 s⁻¹. In addition, in the assay with activin A [3], the “Koff, Activin A” value amounted to 0.000325 s⁻¹ and the “Kon, Activin A” value was 6.82e+06 M⁻¹ s⁻¹.

B5: A64 20-134: ActRIIB-Fc, amino acids 20-134 of SEQ ID NO: 1 with alanine at position 64 (protein)
chain: GRGEAETRECIYYNANWELERTNQSGLERCEGEQDKRLHCYASWANSSGTIELVKKGCWLDDFNCYDRQECVATEENPQVYFCCCEGNFCNERFTHLPEAGGPEVTYEPPPTAPT
modifications: Fc fusion partner without entry
For the molecule B5, in the assay on activin, the affinity for activin entry is listed as “relatively low affinity”. In the assay with GDF11 [4], the “affinity for GDF11” value was “relatively low affinity”.

B6: ALK4-Fc homodimer: homodimer complex of ALK4-Fc fusion polypeptide (protein)
chain: SGPRGVQALLCACTSCLQANYTCETDGACMVSIFNLDGMEHHVRTCIPKVELVPAGKPFYCLSSEDLRNTHCCYTDYCNRIDLRVPSGHLKEPEHPSMWGPVE
modifications: left off: a dimerising Fc or GST
notes: homodimer complex of ALK4-Fc fusion polypeptide
With B6, in the assay with GDF11 [5], the “ka, GDF11” value was found to be 4.8e+06 M⁻¹ s⁻¹ and the “kd, GDF11” value was 0.0048 s⁻¹. Further, in the assay with GDF8 [6], the “ka, GDF8” value is 130000 M⁻¹ s⁻¹ and the “kd, GDF8” value stood at 0.0019 s⁻¹. Besides, in the assay with activin A [7], the “ka, Activin A” value was determined as 580000 M⁻¹ s⁻¹ and the “kd, Activin A” value came to 0.012 s⁻¹. Moreover, the “KD, Activin B” value with activin B is on record as “No binding”.

For the origin of these results see patent US10973880B2, “Compositions and methods for treating pulmonary hypertension” (Acceleron Pharma Inc., priority 2016, dated 2021).
